The values that follow come from paper PMC10946715.

This assay has as its target Cyc15 (Streptomyces sp. NL15-2 K). Briefly: crystal structure; X-ray crystal structure of Cyc15 at 1.7 Å, molecular replacement with an AlphaFold 2.0 search model; asymmetric unit with two molecules (Chain A and Chain B).

On to Cyc15 (enzyme), for which the stoichiometry N was determined as 2.
